Here are results for five molecules from US20250051435A1 (INVETX, published 2025).

Assay [1] concerns the target T1, feline IL-5 (Kingfisher Biotech; RP1152F) (feline, UniProt O77515 20-134).
T1 construct: Bought recombinant protein; also called fIL-5; fIL5
T1 sequence (looked up): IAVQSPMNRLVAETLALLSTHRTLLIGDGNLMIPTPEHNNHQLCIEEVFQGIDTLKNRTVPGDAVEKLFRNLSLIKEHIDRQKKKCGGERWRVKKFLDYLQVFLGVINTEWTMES
The experiment in a line: SPR Biacore T200, IgG captured on goat anti-feline IgG-Fc CM5 chip, feline IL-5 as analyte. The protocol: (§1) MtxA antibody and MtxB antibody had the highest affinity to feline IL-5 as determined by surface plasmon resonance (SPR) using a Biacore T200 instrument. Goat anti-feline IgG-Fc fragment specific (Jackson ImmunoResearch; 102-005-008) at 30 μg/ml in 10 mM acetate, pH 5.0 was immobilized onto CM5 sensor chip (Cytiva; 29104988) with NHS coupling at 10 μL/min for 420 seconds and then other sites blocked with ethanolamine at 10 μL/min for 420 seconds. The anti-feline IL-5 antibodies were captured at 2 μg/ml onto the anti-feline IgG CM5 chip for 60 sec at 10 μl/min. […] The kinetics of the feline IL-5 binding to the antibodies is shown below in FIG. 2. In addition, an IL-5 receptor blocking assay was completed by capturing biotinylated receptors on a Series S CAP chip and Biotin CAPture reagent (Cytiva). For this assay, a fusion protein was generated containing the extracellular domain of feline IL-5Rα (XP_011278466.1) linked to a 2X-Gly-Gly-Gly-Ser (SEQ ID NO:89) linker-linked to the human IgG1 Fc linked to the AviTag sequence (FIG. 1B, SEQ ID NO:2) and subcloned into the pcDNA3.4 mammalian expression vector. This construct was expressed in CHO-S cells and purified with protein A chromatography followed by a polishing chromatography step with SEC. The purified recombinant protein was biotinylated in vitro using the BirA biotin ligase. Antibodies were titrated in running buffer (1×PBSP+, Cytiva) and pre-incubated with 50 nM IL-5 (Kingfisher) at multiple molar ratios. Binding was assessed by injecting these samples over the captured receptor for 180 s. The Rmax was used to calculate the inhibition percent by dividing the Rmax of the pre-mixed samples by an average of the IL-5-only Rmax samples that were collected throughout the assay. The ability of each antibody to block binding of feline IL5 was measured (Table 2).
A general note: Surface plasmon resonance follows binding to a sensor surface in real time, without labels.

Assay [2] concerns the target T1, feline IL-5 (Kingfisher Biotech; …). Kind of assay: SPR Biacore T200, IgG captured on goat anti-feline IgG CM5 chip, feline IL-5 as analyte. The text has this: (§2) MABS, 11:239-264). These post-translational modifications can be particularly problematic when they reside in the CDRs. […] DNA constructs were synthesized (GeneArt) encoding the MtxB clone with substitutions to eliminate the potential sequence liabilities. For the NG site in LCDR3, the Asn (position 106) was substituted with either a Gln or a Ser and for the Met in HCDR3 (position 115), a Len was substituted. The DNA constructs with the light chain variants were fused to the feline kappa constant domain. These DNA constructs were subcloned into the pcDNA3.4 expression vector (ThermoFisher) and expressed with the ExpiCHO system (ThermoFisher). The antibodies were purified with mAbSelect SuRe chromatography (Cytiva) and buffer exchanged into 20 mM sodium acetate, 136 mM sodium chloride, pH 5.5. The variants were tested in an SPR experiment using a Biacore T200 instrument to measure their affinity to feline IL-5 (Kingfisher Biotech; RP1152F). Goat anti-feline IgG was immobilized onto a Series S CM5 sensor chip (Cytiva) and the original MtxB clone and the variants containing the amino acid substitutions were captured on the chip at 5 μg/ml.
DNA constructs (GeneArt) were generated for the two heavy chain variants with the feline IgG1a constant domain along with the three light chain variants with the feline kappa constant domain were all subcloned into pcDNA 3.4 (ThermnoFisher Scientific). Each combination of the heavy and light chain variants was transfected into ExpiCHO cells to generate conditioned medium. The feline IgGs were purified using MabSelect SuRe chromatography and buffer exchanged into 20 mM sodium acetate, 136 mM sodium chloride, pH 5.5. The binding affinities of the different feline IgGs to feline IL-5 was determined using the same SPR method described in the removing potential sequence liabilities in LCDR3 and HCDR3 section and are shown below in Table 7.

For assay [3] the target is unchanged. The experiment in a line: Biacore, antibody pre-incubated with 50 nM IL-5 at 1:1, over captured biotinylated IL-5Rα-Fc-AviTag (competitor m3). Here is the method: as §1
For assay [4] the target is unchanged. The experiment in a line: SPR Biacore T200, IgG captured on goat anti-feline IgG CM5 chip, feline IL-5 as analyte.
Source text: as §2, with “Asparagine deamidation for asparagine residues and oxidation at methionine residues can negatively impact the potency and the stability of an antibody (Xu et al., 2019. MABS,” for “MABS,”
This is another data set of the same source.

Assay [5] shares this target. The experiment in a line: ELISA on plate-coated feline IL-5, Fab at 65 ng/ml dimerized with goat anti-feline IgG F(ab')2, anti-goat-HRP detection. (In general: In an ELISA, binding on a coated surface is turned into a signal by an enzyme label.)
The target is the same in assay [6]. The experiment in a line: ELISA, Fab culture supernatant on plate-coated feline IL-5, anti-feline Fab'2-HRP detection. The text has this: Fragments containing the pre-selected CDR pools from these libraries were randomly paired by overlap PCR to create a new library incorporating mutations throughout all targeted CDRs. The phage propagated following round 4 of selection were used for PCR amplication of LCDR2, LCDR3 and HCDR3. The PCR-amplified fragment containing the light chain and the heavy chain were ligated into a phagemid vector and transformed into E. coli. The number of transformants was approximately 2E+10. Library plasmid DNA was purified using a midi-prep purification method. Ten pg of the library plasmid DNA was transformed into E. coli for growth and propagation of the Fab phage. After overnight phage production, phage was precipitated from the culture supernatant and resuspended in blocking buffer (1% BSA/PBS). The phage were treated at 58° C. for 10 minutes to remove unstable clones prior to the selections. The input phage was incubated for 30 minutes in a blocked ELISA plate coated with feline IL-5. The ELISA plate was washed with PBS, pH 7.4 followed by acid elution of the bound phage. The output phage was then used to infect E. coli for propagation for the next round of selection. For rounds 1, 2, 3 and 4, the ELISA plates were coated with 10 μg/ml, 8 μg/ml, 5 μg/ml and 1 μg/ml, respectively. The number of washes after each round were 3, 5, 10 and 10 for rounds 1, 2, 3 and 4, respectively. Ninety-three clones from the round 4 output were grown overnight for Fab production and tested for binding to feline IL-5 in an ELISA format. For this assay, supernatants from the overnight cultures were incubated in Immulon 4 HBX high-binding plate that was coated with 10 μg/ml feline IL-5 (Kingfisher Biotech; Cat #RP1152F) and blocked with 1% bovine serum albumin in phosphate buffered saline (PBS), pH 7.4. The controls added included the MtxB clone and clone 1H3-C6 which was the top affinity clone from the first stage A1 step. The Fab binding to the feline IL-5 was detected with anti-feline Fab′₂-HRP conjugate.
The results are shown in Table 8A which compares relative Fab binding affinity to feline IL-5 by Fabs disclosed herein. IL-5 binding was detected with anti-feline Fab′₂-HRP conjugate. Differences in CDR amino acids compared to the MtxB are underlined. The data in the last column are absorbance following addition of substrate to detect the HRP conjugate.

For assay [7] the target is unchanged. The experiment in a line: high-throughput SPR (Carterra LSA), antibody coupled to HC-30M chip, feline IL-5 as analyte. The protocol: The chip surface was first activated by flowing a freshly prepared 1:1:1 activation mix of 100 mM MES pH 5.5, 100 mM S-NHS, and 400 mM EDC for seven minutes. Antibodies diluted to 10 μg/mL in 10 mM sodium acetate, pH 4.25 buffer, 0.01% Tween were coupled to the chip surface for 10 min using the instrument 96 Multi Flow Channel printhead. The chip surface was quenched by flowing 1 M Ethanolamine for seven minutes, followed by two wash steps of 15 seconds each in 25 mM MES pH 5.5 buffer. Feline IL-5 (Kingfisher Biotech; RP1152F) was used at the following concentrations: 1000, 333.3, 111.1, 37.0, 12.3, 4.1, 1.4, 0.45, and 0.15 nM.

B1: MtxA antibody (felinized clone 154) (antibody, IgG1a, V domains shown)
VH: DVQLVESGGDLVKPGGSLRLTCVGSGFTFSNYAMSWVRQAPGEGLQWVATIGSGGHYTYHPDSVKGRFTISRDNAKNTLYLQMNSLQTEDTASYYCTRETDGYDGMDYWGQGTLVTVSS
VL: EIQMTQSPSSLSASVGDRVTITCRASQSISDYLYWYQQKPGKAPKLLIYYASQSISGVPSRFSGSGSGTDFTLTISSLQPEDFATYYCQNGHSFPYTFGPGTKLEIK
notes: Feline IgG1a (GenBank BAA32229.1) / feline kappa (GenBank ATI97438.1); also called Matrix clone A
As to B1, in assay [1], the Kd was 0.178 nM, the off-rate (koff) worked out at 1.49e-05 s⁻¹ and the on-rate (kon) amounted to 87100 M⁻¹ s⁻¹. Further, in assay [2], the equilibrium dissociation constant (Kd) was 0.273 nM, the off-rate constant (koff) turned out to be 6.65e-05 s⁻¹ and the on-rate (kon) stood at 242000 M⁻¹ s⁻¹. Further, the “% blocking 1:1” value in assay [3] amounted to 92.5%.

B2: MtxB antibody (felinized clone 154) (antibody, IgG1a, V domains shown)
VH: B1 VH
VL: DIVMTQTPLSLSVTPGEPASISCRASQSISDYLYWYLQKPGQSPRRLIYYASQSISGVPDRFSGSGSGTDFTLRISRVEADDVGVYYCQNGHSFPYTFGPGTKLEIK
notes: Feline IgG1a (GenBank BAA32229.1) / feline kappa (GenBank ATI97438.1); also called MatrixB; Matrix B
On to B2, for which, in assay [1], the equilibrium dissociation constant (Kd) worked out at 5.02 nM, the dissociation rate constant (koff) came out at 0.000548 s⁻¹ and the kon came out at 141000 M⁻¹ s⁻¹. Also, in assay [4], the Kd was 5.9 nM, the koff worked out at 0.00053 s⁻¹ and the on-rate (kon) stood at 90000 M⁻¹ s⁻¹. Further, the “% blocking 1:1” value in assay [3] came to 74.2%.

B3: MtxB Fab (Fab, V domains shown)
VH: B1 VH
VL: B2 VL
notes: Fab made in E. coli from the phagemid: heavy chain variable domain, CH1 and partial hinge; light chain of MtxB; also called Matrix B; original MtxB Fab
With B3, in assay [5], the “Normalized fIL-5 ELISA value, 65 ng/ml Fab” value worked out at 0.165. Further, in assay [6], the “fIL5 Fab (ELISA absorbance)” value was 0.054 absorbance.

B4: Chimeric 154 (clone 154 variable domains with feline IgG1a and feline kappa constant domains) (antibody, V domains shown)
VH: EVQLVESGGDLVKPGGSLKLSCAASGFTFSNYAMSWVRQTPDKRLEWVATIGSGGHYTYHPDSVKGRFSISRDNAKNTLSLQMSSLKSEDTAMYYCTRETDGYDGMDYWGQGTSVTVSS
VL: DIVMTQSPATLSVTPGDRVSLSCRASQSISDYLYWYQQKSHESPRLLIKYASQSISGIPARFSGSGSGSDFTLSINSVEPEDVGVYYCQNGHSFPYTFGGGTKLEIK
notes: also called 154 chimera
For the molecule B4, in assay [1], the Kd is 0.129 nM, the dissociation rate constant (koff) stood at 3.56e-05 s⁻¹ and the kon amounted to 276000 M⁻¹ s⁻¹. In assay [2], the equilibrium dissociation constant (Kd) came to 0.0914 nM, the dissociation rate constant (koff) was 3.38e-05 s⁻¹ and the on-rate (kon) was 369000 M⁻¹ s⁻¹. In addition, the “% blocking 1:1” value in assay [3] was determined as 98.2%.

B5: murine anti-feline IL-5 antibody clone 154 (antibody, V domains shown)
VH: B4 VH
VL: B4 VL
notes: also called murine antibody 154
In assay [7], B5 had a Kd of 0.141 nM.

Broadly, the Kd is the constant that tells how readily two partners part at equilibrium. As usually defined, the koff is the rate constant with which the complex falls apart. The kon is the rate constant with which the complex forms.
